Data on 18 sequences can be found in a protein production outcome set (Wang et al. 2014).

The data set is described as follows: label from the status in PepcDB records.
Turning to “MRDTGTSESNRSGDVVLGDDWVAPHSTVSKELRVKRARRSLFSLRGSPLTRKIITFNLIALIILVAGILYLNDARNGLVVQRAGALVGETQLVADVFEAQITGSAPVNLATGDGVDVDATLEDLSLRRGVEVFVFDTARNMVGQTKGTHVNPRLQALFEDKTGSTIITDALSGLWRAVSSIFANAPKSSAPALEQQIASLLPEALAGETRVETVLNTAGGTVIAAATPILQAGTPIGAVAMASPAGEIDALARRDRERVLQMFVVALLVSVGLSLVLASTIANPLADLAEAAELGRDRNSRRMNPGRIRIPDLSARPDEIGRLSRALRGMVSALYNRIEGNEQFAADVAHEIKNPLASLQSAVGTLRMVRREDQRDKLLSVIEHDVRRLDRLVSDISNASRLDAELVKEEEQSFNLLTMLDNLNQYLGEDARSKGIDYITDMPPDPIMIQGLEARLAQVFVNLITNAISFCEDGDAIRVWTRRRANRVLIVVEDTGPGIPDEALAKIFKRFYSQRPEEHFGNNSGLGLAISKQIVEAHGGVIWAENIRPTEADVTSDPLGARFVVGLPI”, the protein production entry is on record as “not failed”.
As for “MRDVIIALLPATIFGIINFEINAMILILTCVVSCVLFEWLYQKMMNRKVTIYDLSAVVTGLLLALNLSPDVPIWMAILGSAFAIIIVKQLFGGLGFNFMNPALGARCFLLISFAGRMTSFSYDGVTTATPLAVLKNTGDLANVNVLHMFLGNIPGTIGETSVVCILVGAAYLLIRRVIKPVIPLTYIGTFAVLIMIYALASGRGFDLTFLAAHLCGGGLMLGAFFMATDYVTSPITPAGKVVFGVILGILTFCFRIYGGSAEGVSYAIIFSNLLVPLIERWTQPKSFGEGAELAAQGDTSGTKSKMDTRSIIIATIAIMIITVIAGFALAYVYKVTKDPIAVTEQKAKEEAYKAVFGDADSFDSYSDFDADAAAKVLKDAGYNADIDEVVEAKNSDGSVLGYVVTVTSHEAYSGDLQLAMGVRTDGTTNGISFLSLSETAGLGMEADTDSFKSQFAGKKVDKFKYTKSGATVDEEIDALSGATITTNAVTNAVDAGLEYVKSINGGAADPSNALDETDASNGGDK”, the protein production entry is “failed”.
“MREEELNTEKVVAAIANPVENEVRKVWEDVVEKIEQRVAVIEQASHKLLQNKVSEEILSKAKVEAHKLAGSLGMFGSDEGSQIAQEIESLLDNGKKLKASGGKHLGQVVEALHQELENLKSGLEHHHHHH”: the protein production entry is “not failed”.
On to “MREHFVNEFMAVLSNKLTEDALSIVYQSLTLFVSNYEISERNTEVVPYTGYLPECYETYFVTRKIEGMSMKSLELYNLVLKDFFFKLNKEICKISTNDIRVYLYKNQQERNLSNSTLDTKRTIIHAFFEWAANEGYIGSNPCRNIKPIKYERPKRKPLTGIELEKVRNACDNLKDKALLELFYSTGCRVTEMERLDISDIDFQTKEVLLFGKGDKHRISYLNAKAEIAIRNYLDSRNDNEEALFVSDRKPYGRLKKPAIEKRIRVLGEKSGIGRRLYPHLIRHTTATDGLDRGMPVEEVQQILGHVNIATTMIYAEVSRANVKNNHRKCIV”, for which the protein production result is given as “failed”.
Take “MRERLFANVRLRLSGGRQAAYISRAMSAAPDLRDPPPAHVRRLDPILVDRIAAGEVVERPASAVKELVENAIDAGARSIEVAIEGGGRRLIRVVDDGIGMGPDDLALAVERHATSKLPDGDLTRIGSLGFRGEALPSIGAVSRLTITSRTADGEGVSLTLDSGVKGPVRPAPASRGTRIEVTELFAATPARLKFLKTDRAETAAVSEILRRLAVAQPRIRFTLRTESGSPTVFPAESEPGPAALLRRLGAVLGPDFPGNAVPVDMAREGFALAGHVGLPTFHRGAASHIHFVVNGRPVRDRLLLGAVRGAYADTMSSDRHPVLALHLTCDPALVDVNVHPAKTELRFREPGLVRALIVSAIHEALRRAGARSSSTGTQAVLDALRAGAGMGSAPPMAAGVGRFAVHSGASTASALNPRPASRLFSGPSVAAPAGYRPAPRPAFTEDHPGFAETPQALFSADLAPPGADLRPEPEAVSEAETHPEAHPLGAARAQIHETYIVAQTRDGIVLVDQHAAHERLVYERLKSERAGGGVLAQGLLIPDVVEMAPEEADRLVEAAPELERLGLTLEAFGPGAVLVRSVPSALAGGSVKGLVLDVLDALAASGVEEGGPAGAGDPDPVSRRLDAILSRMSCHGSIRAGRRLKPEEMNALLREMEATPLSGSCNHGRPTFVSLGLADIERLFGRR”: the protein production result is “failed”.
As for “MRERRFTSDAAHELRSPLTALKVQTEVAQLSDDDPQARKKALLQLHSGIDRATRLVDQLLTLSRLDSLDNLQDVAEIPLEDLLQSSVMDIYHTAQQAKIDVRLTLNAHSIKRTGQPLLLSLLVRNLLDNAVRYSPQGSVVDVTLNADNFIVRDNGPGVTPEALARIGERFYRPPGQTATGSGLGLSIVQRIAKLHGMNVEFGNAEQGGFEAKVSW”, the protein production result is “not failed”.
On to “MRFFVFLKTLQSRSFCIFQQSFLLFFTSFFIIFVSNLCFISRGYGQNPPSLPAEPPSPQLLLPLDDLIPNDPSSAPAEPNSDSAATILEDFDAVHQSYAQRTEQRKEAEILRLLKELKFCADVEKARKISQQLQRLWSQSGSETIDLLMLWAENAINADNYGLALDYIDNALALLPTYAEGWIRRAWVHIQLSDFKLAMLDLNHALKLEPRNYIAFFELGITMEATERPKLALKAYETALEYYPQMQKVQKRIEELLDKQSPQAL”, for which the protein production result was “failed”.
For “MRFGRFLAVVACATLLAACASTPTPPAGELSGTPTALESGPKKDPLNTLNSTGRAGTLSRSTVVNVDQSSVDWLRGPSSDIWDRIRKGFAMPDLEGTLVDDRTQWYAARPDYMERMVGRSSRYLYHIVEELERRKMPTELALLPFVESAFNPQAESTAKAAGMWQFIPSTGKTYNLKQNMFRDERRDVLASTDAALDYLQRLYDMFGDWQLALAAYNWGEGAVSRAIARNQARGLPTDYASLTMPTETRYYVPKLQAVKNIIANPAAYGVRLPEIPDHPYFVTVTTSRDIDVALAAKLANMPLDEFKALNPSFNRPVILGAANPQILLPFENAERFQYNLNTYRGGLSSWTAVTVDSRERVESLAARLNVDVDTLREINRIPKGMRLKAGSTVMIPRTERHDQDISASLVDTAMLAVEPDVPDAKRVVVRAGRKDTVSTVARRYGVSVKQVQSWNKLSGSKLVAGQSLVLMLRPNSAAAMRAERAGDEDDTPAKAAPHGKSGGKTQAVAKSEKYDKVEKSSRSAKAEPRKRVVVEASPHSSTSKSSGKSATRESKSSPTPATKSKSSRAQ”, the protein production entry was “failed”.
Regarding “MRFKISLTTRLSLIFSAVMLTVWWLSSFILISTLNDYFDNQDRDFLTGKLQLTEEFLKTETFRNKTDIKSLSEKINDAMVGHNGLFISIKNMENEKIVELYAKNSVVPAVLLNKSGDILDYMIQTEENNTVYRSISRRVAVTPEQGKSKHVIITVATDTGYHTLLMDKLSTWLFWFNIGLVFISVFLGWLTTRIGLKPLREMTSLASSMTVHSLDQRLNPDLAPPEISETMQEFNNMFDRLEGAFRKLSDFSSDIAHELRTPVSNLMMQTQFALAKERDVSHYREILFANLEELKRLSRMTSDMLFLARSEHGLLRLDKHDVDLAAELNELRELFEPLADETGKTITVEGEGVVAGDSDMLRRAFSNLLSNAIKYSPDNTCTAIHLERDSDCVNVMITNTMSGQVPANLERLFDRFYRADSSRFYNTEGAGLGLSITRSIIHAHGGELSAEQQGREIVFKVRLLMD”, the protein production entry is “failed”.
Regarding “MRFPVLSRFLHPDPRIRRELVELLYTSLPQVMAIGVTSVTGALALTLLGDDPGYAVITFFILVTATARVFSLMRYKARAARFTDADVVRWERLYGAGATAFGLALGALSFRALQLGDAPGAWIAFGLSMSYCVGMVSRAAIRPWIILTAAAALLMPTMIAGLMRPELAYKIGAGMLVLFWLTLREASKHLSAAFTERLEAKHRLARQATHDFLTDLPNRAGFLQALSDMAGNFTVVAIDLDGFKPINDRHGHHTGDDLLRQVAERLTTCVGADGVAARFGGDEFMLLKPVTSAEQGRDEALALARKAVFDLSMPYLLADLPVCIGASAGIAISHAALAGGNTAQLLERVDRALYVAKRAGGGCAWADGDIEPSCCPRSTPLAKDSAAA”, the protein production result is on record as “failed”.
To “MRFRFGVVVPPAVAGARPELLVVGSRPELGRWEPRGAVRLRPAGTAAGDGALALQEPGLWLGEVELAAEEAAQDGAEPGRVDTFWYKFLKREPGGELSWEGNGPHHDRCCTYNENNLVDGVYCLPIGHWIEATGHTNEMKHTTDFYFNIAGHQAMHYSRILPNIWLGSCPRQVEHVTIKLKHELGITAVMNFQTEWDIVQNSSGCNRYPEPMTPDTMIKLYREEGLAYIWMPTPDMSTEGRVQMLPQAVCLLHALLEKGHIVYVHCNAGVGRSTAAVCGWLQYVMGWNLRKVQYFLMAKRPAVYIDEEALARAQEDFFQKFGKVRSSVCSL” belongs “failed”; to “MRFRYAMVCSSNQNRSMEAHALLKRQGLDVASYGTGSHVKLPGPSLREPNVYDFGTPYKQMFDELRRKDPELYKRNGILQMIKRNLSVKLAPQRWQDNAGDGVFDVVMTFEEKVFDSVLEDLNNREQSLTKTILVMNLEVKDNHEEAAIGGRLALELCQEIEGNETWEDTIDDIVAGFEKQHRRKLVYSISFY”, “failed”.
With “MRFSREALLELEASRLAPYAQKARDTRGRAHPEPESLYRTPYQKDRDRILHTTAFRRLEYKTQVLPGWAGDYYRTRLTHTLEVAQVSRSIARALGLNEDLTEAIALSHDLGHPPFGHTGEHVLNALMQDHGGFEHNAQALRILTHLEVRYPGFRGLNLTYEVLEGIATHEAAYSPGFKPLYEGQGTLEAQVVDLSDAIAYAAHDLDDGLRAGLLHPEELKEVELLQALALEEGLDLLRLPELDRRVLVRQLLGYFITAAIEATHRRVEEAGVQSAEAVRRHPSRLAALGEEAEKALKALKAFLMERFYRHPEVLRERRKAEAVLEGLFAAYTRYPELLPREVQAKIPEEGLERAVCDYIAGMTDRFALEAYRRLSP”, the protein production entry is recorded as “not failed”.
For the sequence “MRGETELKQERSIALPLAISIIAISFAAVFVKMSSAPSSILSMYRLWIIVLLMLPIVWKKREEFSKIQIKDWGFLIGSGFFLALHFLLWFESLKHTTVASSTIILALQPIVSLVGGFFLFKERTTYSAIATMGIAILGVVCIGWGDLGLSEQAIYGDILSFLSVIAVVGYLFIGQTTVKKVSHWIYSFTVFAFAGIFMGIYNIVLQVPFTGYTKWDWTVFLLLAVVPTVSHVINNWLLNYVNATTISMSILGEPVGASILAFFLLGERLNAMQMIGSILVLFGVSVFLLQQQKRTAKNVVNEPVYTQEL”, the protein production result is on record as “failed”.
For “MRGGGILDYIGYFLVAIIVIFVVVKLLEWPIKMLVKLIINGVIGAIMLFALNIFGKYIGISIGINIVTALIAGIFGIPGVIFLVILKFIM”, the protein production entry is “failed”.
With “MRGSVAALLLAAGRSIRMGRCKQLLPLGNTTVLGRCLDTLRRGGVGEIAVVVSADGEQVARAAAGHGVRVVVNPDREGDMASSVRAGRDAFGSAVGGVIVSLCDQPLVAAGTVARLRDRHATEPGRIIIPTHGGRRGHPLLFPLPVLAELEDGLTLRDLVVCDPARVCCVAVADPGILIDMDTPEDYRHVCRLMAPQEGLSLRLEHHHHHH”, the protein production result was “failed”.
Regarding “MRGVFLDKDKIPYDLVTKKLNEWYTSIKNDQVEQAEIIKTEVEKELLNMEENQDALLYYQLLEFRHEIMLSYMKSKEIEDLNNAYETIKEIEKQGQLTGMLEYYFYFFKGMYEFRRKELISAISAYRIAESKLSEVEDEIEKAEFFFKVSYVYYYMKQTYFSMNYANRALKIFREYEEYAVQTVRCQFIVAGNLIDSLEYERALEQFLKSLEISKESNIEHLIAMSHMNIGICYDELKEYKKASQHLILALEIFEKSKHSFLTKTLFTLTYVEAKQQNYNVALIYFRKGRFIADKSDDKEYSAKFKILEGLFFSDGETQLIKNAFSYLASRKMFADVENFSIEVADYFHEQGNLMLSNEYYRMSIEARRKIKKGEIIDENQPDSIGSSDFK”, the protein production entry is given as “failed”.
With “MRGVSELEVGKSNLPAESELELGLGLSLGGGAWKERGRILTAKDFPSVGSKRSAESSSHQGASPPRSSQVVGWPPIGLHRMNSLVNNQAMKAARAEEGDGEKKVVKNDELKDVSMKVNPKVQGLGFVKVNMDGVGIGRKVDMRAHSSYENLAQTLEEMFFGMTGTTCREKVKPLRLLDGSSDFVLTYEDKEGDWMLVGDVPWRMFINSVKRLRIMGTSEASGLAPRRQEQKDRQRNNPV”, the protein production entry was “failed”.
